Results reported in patent US20230390337A1.

Biological target: high-affinity non-cleavable CD16 (hnCD16) Fc receptor
Test: cell-based or functional assay

Rituximab (antibody)
% specific cytotoxicity at E:T=1:1 (ADCC against CD19 negative leukemia cells) (% specific cytotoxicity): 75.6
